In assay [1] the target is Rco_(LS20)-His(6) (Bacillus subtilis (plasmid pLS20cat)). Put plainly: AUC; sedimentation velocity; 10 uM purified Rco_(LS20); 20 mM Tris-HCl, 250 mM NaCl, 10 mM MgCl2, 1 mM EDTA, 100 mM glycerol, pH 7.4; 43-48 krpm; 280 nm; c(s) analysis with SEDFIT.
For assay [2] the target is unchanged. Description: AUC; sedimentation equilibrium; 10 to 30 uM Rco_(LS20); same buffer as sedimentation velocity; 7,000 to 10,000 rpm; 280 nm; single species model (HeteroAnalysis).

Take Rco_(LS20)-His(6) (natural protein): the stoichiometry N in assay [1] and in assay [2] was 4 in each case.
